Sequences and labels used below:
B1: mCherry-MYO10-SLC26A4-Ct (NanoSPD bait) [mouse] / μ2-MID-EGFP (NanoSPD prey) [mouse] (parent complex)
chain 1: RVQFPSWNGLGSVPSTDIYKSITHYKNLEEPEGVKILRFSSPIFYGNVDGFKKCINSTVGFDAIRVYNKRLKALRRIQKLIKKGQLRATKNGIISDIGSSNNAFEPDEDVEEPEELNIPTKEIEIQVDWNSELPVKVNVPKVPIHSLVLDCGAVSFLDVVGVRSLRMIVKEFQRIDVNVYFALLQDDVLEKMEQCGFFDDNIRKDRFFLTVHDAILHLQNQVKSREGQDSLLETVARIRDCKDPLDLMEAEMNAEELDVQDEAMRRLAS
chain 2: SETGALKTFITQQGIKSQHQTKEEQSQITSQVTGQIGWRREGIKYRRNELFLDVLESVNLLMSPQGQVLSAHVSGRVVMKSYLSGMPECKFGMNDKIVIEKQGKGTADETSKSGKQSIAIDDCTFHQCVRLSKFDSERSISFIPPDGEFELMRYRTTKDIILPFRVIPLVREVGRTKLEVKVVIKSNFKPSLLAQKIEVRIPTPLNTSGVQVICMKGKAKYKASENAIVWKIKRMAGMKESQISAEIELLPTNDKKKWARPPISMNFEVPFAPSGLKVRYLKVFEPKLNYSDHDVIKWVRYIGRSGIYETRC

Variants of B1 are the subject of the first assay. Briefly: NanoSPD assay; HeLa cells; mean of biological replicate means; parent: 1.3e+04; read off a plot.
chain 1 L28A: the response was about 2000 A.U.

The variants in another assay derive from B1. Briefly: NanoSPD assay; HeLa cells; mean of biological replicate means; parent: 2.7e+03; read off a plot.
For the variant chain 1 Y19A, chain 1 Y25A, chain 1 Y45A, chain 1 Y180A, the response is about 210 A.U.

For chain 1 Y19A, chain 1 Y45A, chain 1 Y180A, the response was about 530 A.U.

For chain 1 Y25A, the response was about 190 A.U.

The values above are taken from PMC11638888 (2024).
